Assays:
[1] = target: the molecule itself; test: cryo-EM structure; α1emβem GlyR co-expressed and co-purified through the PA tag on βem; single-particle cryo-EM in 0.06% digitonin, 20 mM Tris pH 8.0, 200 mM NaCl; apo and with 2 mM glycine (states apo, gly-1 open, gly-2 expanded open, gly-3 desensitized)
[2] = target: human glycine receptor β subunit, cryo-EM construct βem (human); test: as above
human glycine receptor β subunit, cryo-EM construct βem (human), sequence (P48167 whole entry): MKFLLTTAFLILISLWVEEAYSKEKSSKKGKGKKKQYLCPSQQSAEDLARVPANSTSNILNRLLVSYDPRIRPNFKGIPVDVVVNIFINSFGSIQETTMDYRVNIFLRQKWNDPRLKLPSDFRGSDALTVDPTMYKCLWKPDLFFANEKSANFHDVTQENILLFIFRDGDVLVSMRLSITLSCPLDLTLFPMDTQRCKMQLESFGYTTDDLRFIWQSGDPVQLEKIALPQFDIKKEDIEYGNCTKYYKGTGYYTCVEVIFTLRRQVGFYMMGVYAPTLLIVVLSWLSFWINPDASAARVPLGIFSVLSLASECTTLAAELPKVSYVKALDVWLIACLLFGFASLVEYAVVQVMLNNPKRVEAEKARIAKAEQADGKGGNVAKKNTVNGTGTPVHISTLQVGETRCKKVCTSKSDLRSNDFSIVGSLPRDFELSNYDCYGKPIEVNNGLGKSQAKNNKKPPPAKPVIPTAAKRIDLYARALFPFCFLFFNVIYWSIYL

B1: human glycine receptor α1 subunit, cryo-EM construct α1em (receptor)
chain: ARSAPKPMSPSDFLDKLMGRTSGYDARIRPNFKGPPVNVSCNIFINSFGSIAETTMDYRVNIFLRQQWNDPRLAYNEYPDDSLDLDPSMLDSIWKPDLFFANEKGAHFHEITTDNKLLRISRNGNVLYSIRITLTLACPMDLKNFPMDVQTCIMQLESFGYTMNDLIFEWQEQGAVQVADGLTLPQFILKEEKDLRYCTKHYNTGKFTCIEARFHLERQMGYYLIQMYIPSLLIVILSWISFWINMDAAPARVGLGITTVLTMTTQSSGSRASLPKVSYVKAIDIWMAVCLLFVFSALLEYAAVNFVSRQHKELLGSSGEEMRKLFIQRAKKIDKISRIGFPMAFLIFNMFYWIIYKIVRREDVHNQ
notes: human glycine receptor α1, NCBI NP_001139512.1, the part before the M3/M4 loop (residues up to L315); linker that replaces the M3/M4 loop residues R316-P381; human glycine receptor α1, NCBI NP_001139512.1, the part after the replaced M3/M4 loop (E382 to the C-terminal Q429); Four copies stand in each α1emβem pentamer; also called GlyR α1; α subunit; source: HEK293S GnTI- cells, BacMam baculovirus …
binding result [1]: binds
stoichiometry N (α1 subunits per β subunit) [2]: 4
